Results on four substances are retold here after paper PMC9335266.

For the assay, the target named is TRIM7^B30.2 (PRY-SPRY domain of human TRIM7, residues 338-511) (human) (UniProt Q9C029). Description: ITC. (In general: In ITC the heat of successive injections is recorded.)
Take 2C peptide with F−2 substituted by Ala: the fold decrease in binding affinity against the 2C peptide worked out at 8 fold. In the case of “2C peptide with F−2 substituted by an acidic residue (D−2)” it was 8 to 15 fold; in that of “2C peptide with F−2 replaced by a positively charged residue (R−2)”, more than 50 fold. The result for “2C peptide with F−2 replaced by polar serine (S−2)” reads more than 50 fold.
